One block for each binder: values may come before it. Where no end group is shown, it is not given here. The star is where a group is joined. Biotin = O=C1N[C@H]2[C@H](CS[C@H]2CCCCC(=O)*)N1
Legend:
[1] = biological target: T1, naked peptide SSMEDYVNFN (human); test: ELISA, naked peptide
T1 peptide: SSMEDYVNFN

[2] = biological target: T2, naked peptide SMEDYVNFNF (human); test: ELISA, naked peptide
T2 peptide: SMEDYVNFNF

[3] = biological target: T3, naked peptide DYGSESTSSM (human); test: ELISA, naked peptide
T3 peptide: DYGSESTSSM

[4] = biological target: T4, naked peptide KNNVRQFAS (human); test: ELISA, naked peptide
T4 peptide: KNNVRQFAS

[5] = biological target: T5, naked peptide TDFTSPIPNM (human); test: ELISA, naked peptide
T5 peptide: TDFTSPIPNM

[6] = biological target: T6, naked peptide MADDYGSEST (human); test: ELISA, naked peptide
T6 peptide: MADDYGSEST

[7] = biological target: T7, naked peptide TSSMEDYVNF (human); test: ELISA, naked peptide
T7 peptide: TSSMEDYVNF

[8] = biological target: T8, naked peptide TDFYCEKNNV (human); test: ELISA, naked peptide
T8 peptide: TDFYCEKNNV

[9] = biological target: T9, naked peptide YCEKNNVRQF (human); test: ELISA, naked peptide
T9 peptide: YCEKNNVRQF

[10] = biological target: T10, naked peptide MEDYVNFNFT (human); test: ELISA, naked peptide
T10 peptide: MEDYVNFNFT

[11] = biological target: T11, naked peptide SESTSSMEDY (human); test: ELISA, naked peptide
T11 peptide: SESTSSMEDY

[12] = biological target: T12, naked peptide TSPIPNMADD (human); test: ELISA, naked peptide
T12 peptide: TSPIPNMADD

[13] = biological target: T13, naked peptide FNFTDFYCEK (human); test: ELISA, naked peptide
T13 peptide: FNFTDFYCEK

[14] = biological target: T14, naked peptide IPNMADDYGS (human); test: ELISA, naked peptide
T14 peptide: IPNMADDYGS

[15] = biological target: T15, naked peptide YVNFNFTDFY (human); test: ELISA, naked peptide
T15 peptide: YVNFNFTDFY

[16] = biological target: T16, naked peptide MTPTDFTSPI (human); test: ELISA, naked peptide
T16 peptide: MTPTDFTSPI

[17] = biological target: T17, biotin-peptide SSMEDYVNFN (human); test: ELISA biotin-peptide; scFv 2.5 ug/mL; repI
T17 peptide: Biotin-SSMEDYVNFN
Protocol: (§1) The peptides were synthesized naked or with a N-terminal Biotin modification with a purity of >98%. All four scFvs were verified by ELISA that can be detected with anti-His antibodies. ELISA was performed for scFv-peptide binding validation. Briefly, naked peptides were coated (50 μg/mL) in 0.58M carbonate-bicarbonate buffer pH9.5, 100 μL/well, 4° C. O/N. Then after blocking (3% BSA-PBS, 300 μL/well 37° C. 1.5 h) and washing (PBS+Tween-20 0.05% v/v (0.05% PBST), wells were incubated with each purified scFv antibody at concentration of 1 μg/mL in PBS at 37° C. 1 h. After washing (0.05% PBST), wells were incubated with secondary antibodies (goat anti-His IgG-HRP) in PBS, 37° C., 30 min. After washing, and incubation with TMB substrate, reactions were stopped with 2M HCl and reading was quantified at OD450.
(§2) ELISA with biotin-conjugated peptides (5 μg/mL) was performed very similar to described above with minor modifications.
(§3) A full curve ELISA was performed for each positive scFv/biotin-peptide pair in order to confirm previous results. Tables 15-17 show ELISA results of the dose-dependent full curve for each positive peptide with scFv “CCR9_HUM”, “Comp-2” and “Comp-3”, respectively.

[18] = biological target: T18, biotin-peptide MEDYVNFNFT (human); test: ELISA biotin-peptide; scFv 2.5 ug/mL; repI
T18 peptide: Biotin-MEDYVNFNFT
Protocol: as §1, §2, §3

[19] = biological target: T19, biotin-peptide TSSMEDYVNF (human); test: ELISA biotin-peptide; scFv 2.5 ug/mL; repI
T19 peptide: Biotin-TSSMEDYVNF
Protocol: as §1, §2, §3

[20] = biological target: T20, biotin-peptide SMEDYVNFNF (human); test: ELISA biotin-peptide; scFv 2.5 ug/mL; repI
T20 peptide: Biotin-SMEDYVNFNF
Protocol: as §1, §2, §3

[21] = biological target: T17, biotin-peptide SSMEDYVNFN; test: ELISA biotin-peptide; scFv 0.625 ug/mL; repII
Protocol: as §1, §2, §3

[22] = biological target: T18, biotin-peptide MEDYVNFNFT; test: ELISA biotin-peptide; scFv 0.625 ug/mL; repII
Protocol: as §1, §2, §3

[23] = biological target: T19, biotin-peptide TSSMEDYVNF; test: ELISA biotin-peptide; scFv 0.625 ug/mL; repII
Protocol: as §1, §2, §3

[24] = biological target: T20, biotin-peptide SMEDYVNFNF; test: ELISA biotin-peptide; scFv 0.625 ug/mL; repII
Protocol: as §1, §2, §3

[25] = biological target: T18, biotin-peptide MEDYVNFNFT; test: ELISA biotin-peptide; scFv 0.15625 ug/mL; repI
Protocol: as §1, §2, §3

[26] = biological target: T21, Peptide 2-BSA (GSESTSSMED-C conjugated to BSA) (human); test: ELISA; Ab 0.5 ug/mL; repI
T21 peptide: GSESTSSMEDC(BSA)
Protocol: (§4) In brief, plates with each non-conjugated peptide (50 μg/mL) or BSA-conjugated peptide (5 μg/mL) were coated in 0.58M carbonate-bicarbonate buffer pH9.5, 100 μL/well, at 4° C. […] After washing, wells were incubated with the 3, 3′,5,5′-Tetramethylbenzidine (TMB) HRP substrate and reactions were stopped with 2M HCl and OD450 was recorded.

[27] = biological target: T22, BSA (negative control coating) (bovine, UniProt P02769 25-607); test: ELISA; Ab 0.5 ug/mL; repI
T22 construct: also called Negative control BSA
Protocol: as §4

[28] = biological target: T23, Peptide 1, non-conjugated (MADDYGSEST-C) (human); test: ELISA; Ab 0.5 ug/mL; repI
T23 construct: With the extra C-terminal Cys
T23 peptide: MADDYGSESTC
Protocol: as §4

[29] = biological target: T24, Peptide 3-BSA (SSMEDYVNFN-C conjugated to BSA) (human); test: ELISA; Ab 0.5 ug/mL; repI
T24 peptide: SSMEDYVNFNC(BSA)
Protocol: as §4

[30] = biological target: T25, antigen peptide-BSA (immunisation peptide #1 MADDYGSESTSSMEDYVNFNF-C conjugated to BSA) (human, extra C-terminal Cys conjugated to BSA); test: ELISA; Ab 0.5 ug/mL; repI
T25 construct: also called Positive control antigen peptide-BSA; MADDY peptide
T25 peptide: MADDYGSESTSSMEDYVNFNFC
Protocol: as §4

T22 sequence (P02769 25-607 limits assumed): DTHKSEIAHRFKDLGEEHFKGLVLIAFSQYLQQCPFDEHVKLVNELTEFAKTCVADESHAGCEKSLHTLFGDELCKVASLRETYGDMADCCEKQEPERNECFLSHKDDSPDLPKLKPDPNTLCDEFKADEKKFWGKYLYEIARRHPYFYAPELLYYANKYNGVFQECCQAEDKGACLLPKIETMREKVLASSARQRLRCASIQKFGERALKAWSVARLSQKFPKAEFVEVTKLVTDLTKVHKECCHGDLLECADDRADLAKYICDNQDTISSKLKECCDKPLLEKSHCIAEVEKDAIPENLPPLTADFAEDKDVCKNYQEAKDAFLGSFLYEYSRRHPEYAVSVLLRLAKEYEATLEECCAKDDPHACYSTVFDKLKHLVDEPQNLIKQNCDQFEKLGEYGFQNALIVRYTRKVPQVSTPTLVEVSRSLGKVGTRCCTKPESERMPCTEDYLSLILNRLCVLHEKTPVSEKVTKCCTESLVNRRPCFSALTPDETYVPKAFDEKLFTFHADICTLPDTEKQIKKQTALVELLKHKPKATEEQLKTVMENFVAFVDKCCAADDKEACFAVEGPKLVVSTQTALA

binding result [1]: no binding (tested: 1 ug/mL)
binding result [2]: no binding (tested: 1 ug/mL)
binding result [3]: no binding (tested: 1 ug/mL)
binding result [4]: no binding (tested: 1 ug/mL)
binding result [5]: no binding (tested: 1 ug/mL)
binding result [6]: no binding (tested: 1 ug/mL)
binding result [7]: no binding (tested: 1 ug/mL)
binding result [8]: no binding (tested: 1 ug/mL)
binding result [9]: no binding (tested: 1 ug/mL)
binding result [10]: no binding (tested: 1 ug/mL)
binding result [11]: no binding (tested: 1 ug/mL)
binding result [12]: no binding (tested: 1 ug/mL)
binding result [13]: no binding (tested: 1 ug/mL)
binding result [14]: no binding (tested: 1 ug/mL)
binding result [15]: no binding (tested: 1 ug/mL)
binding result [16]: no binding (tested: 1 ug/mL)
B1: Comparative antibody 1 (Comp-1) scFv, SEQ ID NO: 10 from WO2023/037125 A1, His-tagged (scFv)
scFv: QVQLKESGPGLVQPSQTLSLTCTVSGFSVASYDMHWVRLPPGKGLEWMGIIWANGNTHYNSGLKSRLSISRDTSKSQVFLKMNSLQTEDTAIYFCTRGGFAYWGQGTLVTVSSGGGGSGGGGSGGGGSGGGGSDVVMTQTPVSLSVSLGGQVSISCRSSQSLVHNNGNTYLSWYLQKPGQSPQLLIYKVSNRFSGVSDRFSGSGSGTDFTLKISRVEPDDLGVYYCGQGTQYPTFGGGTKLELKHHHHHH

OD450 [17]: 1.81 OD
OD450 [18]: 1.66 OD
OD450 [19]: 1.42 OD
OD450 [20]: 1.76 OD
OD450 [21]: 1.74 OD
OD450 [22]: 1.46 OD
OD450 [23]: 0.67 OD
OD450 [24]: 1.67 OD
OD450 [25]: 1.41 OD
B2: CCR9_HUM2 scFv (humanized anti-CCR9 scFv, SEQ ID NO: 17 with C-terminal 6xHis tag) (scFv)
scFv: QVQLVQSGAEVKKPGASVKVSCTASGYSFTDYIIYWVKQAHGQSLEWMGYIDPNNYNTRYSQKFQGKVTITVDKSSTSAYMELNSLTSDDTAVYYCARDVYWGQGTTVTVSSGGGGSGGGGSGGGGSGGGGSDVVMTQTPLSLSVTPGQPASISCRSSQSLVHSNGKTYLQWYLQKPGQSPKLLIYKVSNRFSGVPDRFSGSGSGTDFTLKISRVEAEDVGVYFCAQSTHVWTFGGGTKVEIKRAHHHHHH

OD450 [26]: 0.02 OD
OD450 [27]: 0.02 OD
OD450 [28]: 0.01 OD
OD450 [29]: 2.03 OD
OD450 [30]: 2.44 OD
B3: anti-CCR9 antibody clone 115 (murine, from hybridoma #115) (antibody, V domains shown)
VH: QVQLKQSGPELVKPGTSVRVSCTASGYSFTDYIIYWVKQSHGRSLEWIGYIDPNNYNTRYSQKFKGKATLTVDKSSTSAFMHLNSLTSDDSAVYYCARDVYWGQGTTLTVSS
VL: DVVMTQTPLSLTVSLGDQASISCRSSQSLVHSNGKTYLQWYLQKPGQSPKLLIYKVSNRFSGVPDRFSGSGSGTDFTLKISRVEAEDLGVYFCAQSTHVWTFGGGTKLEIKR
notes: Mouse IgG1
